Measured values: article PMC7768483, “Gbx2 Is Required for the Migration and Survival of a Subpopulation of Trigeminal Cranial Neural Crest Cells”

Molecular target: GBX2 (full-length) (mouse, UniProt P48031 1-348)
Experiment: EMSA; 720 nM GBX2, 940 pM probe; supershift with GBX2 antibody; 2X binding buffer: 20 mM Tris-HCl pH 7.4, 50 mM KCl, 1 mM DTT, 10% glycerol, 200 µg/mL BSA, 2.2 µg/mL poly dI/dC; 30 min at 25 °C; 6% native PAGE, Tris-glycine
Settings: protein: recombinant; label: 32P end label (probe); blunt

GBX2 (full-length), sequence (P48031 whole entry): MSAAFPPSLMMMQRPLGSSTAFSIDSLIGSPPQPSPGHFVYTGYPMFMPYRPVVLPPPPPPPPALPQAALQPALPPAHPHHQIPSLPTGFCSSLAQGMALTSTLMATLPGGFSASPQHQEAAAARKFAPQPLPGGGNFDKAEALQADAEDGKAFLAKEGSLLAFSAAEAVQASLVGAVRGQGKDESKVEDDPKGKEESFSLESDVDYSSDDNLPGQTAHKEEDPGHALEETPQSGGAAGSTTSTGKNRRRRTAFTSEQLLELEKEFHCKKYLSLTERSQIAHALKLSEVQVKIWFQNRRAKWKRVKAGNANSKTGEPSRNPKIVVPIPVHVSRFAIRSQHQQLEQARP

B1: NRP1 oligonucleotide (dsDNA)
DNA 1: AACATTCCAAAAATTATCAACCATTTCAGGAATACATTTCATAAAAGCTAGATTGAGTTCTGCTTGTTTTTTATT
DNA 2: AATAAAAAACAAGCAGAACTCAATCTAGCTTTTATGAAATGTATTCCTGAAATGGTTGATAATTTTTGGAATGTT
- binding result: binds
